In article PMC7072329, “Discovery of Kynurenines Containing Oligopeptides as Potent Opioid Receptor Agonists” (Biomolecules, 2020):

Target: T1, μ-opioid receptor (rat (endogenous in rat brain)), P33535
T1 chain: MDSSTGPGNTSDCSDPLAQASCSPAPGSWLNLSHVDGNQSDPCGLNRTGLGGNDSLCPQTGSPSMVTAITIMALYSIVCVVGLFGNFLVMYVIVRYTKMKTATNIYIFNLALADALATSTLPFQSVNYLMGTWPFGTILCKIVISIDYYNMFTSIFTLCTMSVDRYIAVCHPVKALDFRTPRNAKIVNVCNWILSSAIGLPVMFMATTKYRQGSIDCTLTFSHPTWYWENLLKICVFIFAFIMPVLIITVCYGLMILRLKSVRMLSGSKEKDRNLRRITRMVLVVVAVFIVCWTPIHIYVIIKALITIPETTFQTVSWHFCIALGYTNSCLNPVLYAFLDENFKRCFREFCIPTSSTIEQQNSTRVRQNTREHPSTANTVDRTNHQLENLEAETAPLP
Assay: radioligand binding; displacement of [^3H]DAMGO from rat brain membrane homogenate by unlabelled ligand (10^-10 to 10^-5 M); 50 mM Tris-HCl pH 7.4, 35 °C, 45 min; non-specific binding with 10 μM naloxone; IC50 converted into Ki by Cheng-Prusoff, one site competition fit

B1: endomorphin-2 (EM-2) (peptide)
chain: YPFF
modifications: not checked
B1 was tested, and the Ki was 3.16 nM.
